Reference: patent publication US20200239579A1
Where two headings read alike, the source gives them in different places.

Columns and labels:
[1] = molecular target: human PD-L1 (full length, on cells) (human), Q9NZQ7
[2] = molecular target: human PD-L1 (full length, on cells) (human), Q9NZQ7; assay: flow cytometry on PC3 cells, PE anti-human IgG secondary, MFI (PE)
[3] = molecular target: human PD-L1 (full length, on cells) (human), Q9NZQ7; assay: flow cytometry on SK-MES-1 cells, PE anti-human IgG secondary, MFI (PE)
[4] = molecular target: human PD-L1 (full length, on cells) (human), Q9NZQ7; assay: flow cytometry on MDA-MB-231 cells, PE anti-human IgG secondary, MFI (PE)
[5] = molecular target: cynomolgus monkey PD-L1 (full length, on CHO cells) (cynomolgus monkey (Macaca fascicularis)), G7PSE7; assay: flow cytometry on CHO cells transfected with cynomolgus PD-L1, PE anti-human IgG secondary, MFI (PE)
cynomolgus monkey PD-L1 (full length, on CHO cells) (cynomolgus monkey (Macaca fascicularis)), G7PSE7, sequence (G7PSE7 entry or part of it): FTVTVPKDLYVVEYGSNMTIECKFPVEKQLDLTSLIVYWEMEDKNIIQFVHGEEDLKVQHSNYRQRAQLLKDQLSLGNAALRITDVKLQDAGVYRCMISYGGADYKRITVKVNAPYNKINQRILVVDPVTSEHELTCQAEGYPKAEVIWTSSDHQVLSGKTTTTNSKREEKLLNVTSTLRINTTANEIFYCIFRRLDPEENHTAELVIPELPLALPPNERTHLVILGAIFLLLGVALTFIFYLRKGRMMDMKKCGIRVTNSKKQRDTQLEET

human PD-L1 (full length, on cells) (human), Q9NZQ7, sequence (Q9NZQ7 19-290 limits assumed): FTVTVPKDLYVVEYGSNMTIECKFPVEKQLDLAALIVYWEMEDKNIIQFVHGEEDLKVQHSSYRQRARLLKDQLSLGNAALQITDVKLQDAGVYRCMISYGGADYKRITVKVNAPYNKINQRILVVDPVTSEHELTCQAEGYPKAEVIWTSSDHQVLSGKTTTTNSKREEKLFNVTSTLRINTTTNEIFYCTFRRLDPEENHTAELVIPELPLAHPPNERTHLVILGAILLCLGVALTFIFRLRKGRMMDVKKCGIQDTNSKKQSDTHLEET

B1: bsIgG1-b12-FEAL×547-FEAR (bispecific antibody, not shown: another chain or arm of the molecule)
heavy: EVQLLEPGGGLVQPGGSLRLSCEASGSTFSTYAMSWVRQAPGKGLEWVSGFSGSGGFTFYADSVRGRFTISRDSSKNTLFLQMSSLRAEDTAVYYCAIPARGYNYGSFQHWGQGTLVTVSSASTKGPSVFPLAPSSKSTSGGTAALGCLVKDYFPEPVTVSWNSGALTSGVHTFPAVLQSSGLYSLSSVVTVPSSSLGTQTYICNVNHKPSNTKVDKRVEPKSCDKTHTCPPCPAPEFEGGPSVFLFPPKPKDTLMISRTPEVTCVVVAVSHEDPEVKFNWYVDGVEVHNAKTKPREEQYNSTYRVVSVLTVLHQDWLNGKEYKCKVSNKALPAPIEKTISKAKGQPREPQVYTLPPSREEMTKNQVSLTCLVKGFYPSDIAVEWESNGQPENNYKTTPPVLDSDGSFFLYSRLTVDKSRWQQGNVFSCSVMHEALHNHYTQKSLSLSPGK
light: SYVLTQPPSVSVAPGQTARITCGGNNIGSKSVHWYQQKPGQAPVLVVYDDNDRPSGLPERFSGSNSGNTATLTISRVEAGDEADYYCQVWDSSSDHVVFGGGTKLTVLGQPKAAPSVTLFPPSSEELQANKATLVCLISDFYPGAVTVAWKADSSPVKAGVETTTPSKQSNNKYAASSYLSLTPEQWKSHRSYSCQVTHEGSTVEKTVAPTECS
modifications: not checked
Work on B1 yielded an EC50 (read off the curve) [1] of 0.1 µg/mL, an EC50 (read off the curve) [2] of 0.05 µg/mL and an EC50 (read off the curve) [3] of 0.2 µg/mL. It also gave an EC50 (read off the curve) [4] of 0.06 µg/mL and an EC50 (read off the curve) [5] of 0.2 µg/mL.
